In assay [1] the target is Drosophila Su(H) (98-523) WT (Drosophila) (UniProt P28159). Put plainly: ITC; cofactor (RAM peptide, Hairless or SHARP) in the syringe, Su(H) or Rbpj in the cell; 50 mM sodium phosphate, 150 mM sodium chloride; 20 injections, triplicate, one site model; 25°C by the legend, 20°C by the methods. For orientation: In ITC the heat of successive injections is recorded.
For assay [2], the target named is Drosophila Su(H) WT (98-523) (Drosophila) (UniProt P28159). Put plainly: ITC; RAM peptide, Hairless or SHARP in the syringe, Su(H) or Rbpj in the cell; 50 mM sodium phosphate, 150 mM sodium chloride; 20 injections of 14 uL; triplicate; one site binding model; 20°C by the methods, 25°C by the legend of Fig 6.
The target of assay [3] is Drosophila Su(H) E137V (98-523) (Drosophila) (UniProt P28159). Described as above.
Assay [4] concerns the target Drosophila Su(H) K132M (98-523) (Drosophila) (UniProt P28159). The assay is described as above.

Drawing on paper PMC9398005, this text covers Kd and Ka for one molecule.

Take VLSTQRKRAHGVTWFPEGFRAPAAVMSR [Drosophila Notch RAM peptide (residues 1763-1790)]: the Kd in assay [1] and in assay [2] was 187 nM each time. The Ka in assay [2] turned out to be 5.4e+06 M⁻¹; in assay [3], 6.5e+06 M⁻¹; in assay [4], 1.2e+07 M⁻¹.

Usually Kd stands for the concentration at which binding is half-saturated. Read a high Kd as lower affinity.
